According to patent US20200079833A1 (AstraZeneca / MedImmune, published 2020):
Starred links: 1 amine or outer side, 2 acyl side, 3 side chain; linkers in the order of their positions; H or OH if unused. Non-standard residues stand in square brackets, D forms with d. Groups on a side chain read outwards from the residue. Primed or numbered codes have the meaning given here. No end group written: not given here. *: point of attachment. γGlu = O=C(O)[C@H](CCC(=O)[*:2])N[*:1]; αMeF = C[C@](N)(Cc1ccccc1)C(=O)O; αMeK = C[C@](N)(CCCCN)C(=O)O; Lauroyl = CCCCCCCCCCCC(=O)*; αMeS = C[C@](N)(CO)C(=O)O; PEG2′ = not defined here; Aib = CC(C)(N)C(=O)O

T1: glucose-dependent insulinotropic peptide (gastric inhibitory polypeptide) receptor (GIPR), primary cAMP assay … (human, UniProt P48546 22-466)
T1 sequence (looked up): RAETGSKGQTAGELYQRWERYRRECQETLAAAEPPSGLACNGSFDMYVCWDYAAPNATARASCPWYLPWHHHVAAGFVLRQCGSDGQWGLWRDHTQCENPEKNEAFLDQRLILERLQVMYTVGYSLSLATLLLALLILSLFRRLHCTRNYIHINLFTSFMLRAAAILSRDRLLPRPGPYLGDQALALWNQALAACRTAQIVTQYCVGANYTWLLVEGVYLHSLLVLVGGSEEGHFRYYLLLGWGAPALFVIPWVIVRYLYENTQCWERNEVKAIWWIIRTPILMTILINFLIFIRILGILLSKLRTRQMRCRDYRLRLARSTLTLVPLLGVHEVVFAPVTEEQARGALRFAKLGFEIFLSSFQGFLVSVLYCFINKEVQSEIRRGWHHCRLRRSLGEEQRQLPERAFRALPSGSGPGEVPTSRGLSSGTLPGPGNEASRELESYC

T2: GLP-1R in the INS1e assay (UniProt P32301 22-463, limits assumed)
T2 sequence (looked up): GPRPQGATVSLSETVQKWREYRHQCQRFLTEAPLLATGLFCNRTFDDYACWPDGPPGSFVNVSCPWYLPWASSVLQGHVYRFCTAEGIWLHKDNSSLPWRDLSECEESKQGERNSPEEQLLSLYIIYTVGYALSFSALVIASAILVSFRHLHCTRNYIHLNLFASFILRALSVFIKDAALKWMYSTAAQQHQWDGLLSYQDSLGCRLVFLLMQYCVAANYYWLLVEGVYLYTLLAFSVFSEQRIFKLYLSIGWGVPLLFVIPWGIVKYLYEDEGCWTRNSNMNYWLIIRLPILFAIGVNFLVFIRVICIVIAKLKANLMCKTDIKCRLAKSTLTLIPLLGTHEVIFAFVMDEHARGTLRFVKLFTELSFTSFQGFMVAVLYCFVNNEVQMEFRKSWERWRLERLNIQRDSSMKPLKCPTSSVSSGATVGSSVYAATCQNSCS


Tests used:
Assay in all cases: cell-based or functional assay
[1] = target: GLP-1 receptor (GLP-1R), primary cAMP assay cell line (human, UniProt P43220 24-463)
[2] = target: glucagon receptor (GCGR), primary cAMP assay cell line (human, UniProt P47871 26-477)
[3] = target: T1, glucose-dependent insulinotropic …
[4] = target: T2, GLP-1R in the INS1e assay

Sequence of glucagon receptor (GCGR), primary cAMP assay cell line (P47871 26-477): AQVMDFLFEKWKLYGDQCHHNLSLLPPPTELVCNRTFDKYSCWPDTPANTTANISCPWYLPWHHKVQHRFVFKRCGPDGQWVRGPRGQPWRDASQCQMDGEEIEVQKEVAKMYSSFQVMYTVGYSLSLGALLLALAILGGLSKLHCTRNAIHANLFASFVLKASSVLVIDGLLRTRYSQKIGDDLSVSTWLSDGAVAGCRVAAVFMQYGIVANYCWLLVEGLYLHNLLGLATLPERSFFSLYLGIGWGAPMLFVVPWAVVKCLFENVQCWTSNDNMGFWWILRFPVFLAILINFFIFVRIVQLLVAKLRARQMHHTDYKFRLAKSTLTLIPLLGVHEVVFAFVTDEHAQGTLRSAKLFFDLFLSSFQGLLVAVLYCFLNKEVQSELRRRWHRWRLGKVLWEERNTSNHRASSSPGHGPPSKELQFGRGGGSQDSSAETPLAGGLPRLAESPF

Binder	cAMP Primary assay EC50, Mean pM GLP-1R [1] [pM]	cAMP Primary assay EC50, n1 [1] [nM]	cAMP Primary assay EC50, n2 [1] [nM]	cAMP Primary assay EC50, n1 [2] [nM]	cAMP Primary assay EC50, n2 [2] [nM]	cAMP Primary assay EC50, n1 [3] [nM]	cAMP Primary assay EC50, n2 [3] [nM]	cAMP INS1e assay EC50, Mean pM GLP-1R [4] [pM]	cAMP INS1e assay EC50, n1 [4] [nM]	cAMP INS1e assay EC50, n2 [4] [nM]
H[Aib]EGS[αMeF]TSDV[αMeS]SK([PEG2′-PEG2′-γGlu-Lauroyl])LEGEAA[αMeK]K([PEG2′-PEG2′-γGlu-Lauroyl])FIK([PEG2′-PEG2′-γGlu-Lauroyl])FVVEGG-NH2 [SEQ ID NO: 450]	49	0.028	0.07	19.9	19.9	19.9	19.9	6810	6.38	7.24
H[Aib]EGS[αMeF]TSDK([PEG2′-PEG2′-γGlu-Lauroyl])SSYLEK([PEG2′-PEG2′-γGlu-Lauroyl])EAA[αMeK]EFIAK([PEG2′-PEG2′-γGlu-Lauroyl])VVEGG-NH2 [SEQ ID NO: 455]	87.4	0.0548	0.12	19.8	19.8	19.8	19.8	4910	6.74	3.08
H[Aib]EGS[αMeF]TSDVSK([PEG2′-PEG2′-γGlu-Lauroyl])YLEGEAA[αMeK]K([PEG2′-PEG2′-γGlu-Lauroyl])FIAK([PEG2′-PEG2′-γGlu-Lauroyl])VVEGG-NH2 [SEQ ID NO: 462]	47	0.0376	0.0564	20	20	20	20	4560	5.4	3.73
H[Aib]EGS[αMeF]TSDK([PEG2′-PEG2′-γGlu-Lauroyl])SSYLEGEAA[αMeK]K([PEG2′-PEG2′-γGlu-Lauroyl])FIAK([PEG2′-PEG2′-γGlu-Lauroyl])VVEGG-NH2 [SEQ ID NO: 458]	41.4	0.0363	0.0464	20	20	20	20	3370	3.07	3.67
H[Aib]EGS[αMeF]TSDV[αMeS]SYK([PEG2′-PEG2′-γGlu-Lauroyl])EGEAA[αMeK]K([PEG2′-PEG2′-γGlu-Lauroyl])FIK([PEG2′-PEG2′-γGlu-Lauroyl])FVVEGG-NH2 [SEQ ID NO: 454]	43.7	0.0221	0.0652	19.7	19.7	19.7	19.7	5540	4.1	6.99

Further lines, results first:

cAMP Primary assay EC50, Mean pM GLP-1R [1] [pM]	cAMP Primary assay EC50, n1 [1] [nM]	cAMP Primary assay EC50, n2 [1] [nM]	cAMP Primary assay EC50, n1 [2] [nM]	cAMP Primary assay EC50, n2 [2] [nM]	cAMP Primary assay EC50, n1 [3] [nM]	cAMP Primary assay EC50, n2 [3] [nM]	cAMP INS1e assay EC50, Mean pM GLP-1R [4] [pM]	cAMP INS1e assay EC50, n1 [4] [nM]	cAMP INS1e assay EC50, n2 [4] [nM]	Binder
45.4	0.0418	0.049	19.8	19.8	19.8	19.8	4900	6.9	2.89	H[Aib]EGS[αMeF]TSDV[αMeS]SYK([PEG2′-PEG2′-γGlu-Lauroyl])EGEK([PEG2′-PEG2′-γGlu-Lauroyl])A[αMeK]EFIAK([PEG2′-PEG2′-γGlu-Lauroyl])VVEGG-NH2 [SEQ ID NO: 469]
36.3	0.0283	0.0442	20	20	20	20	5860	8.57	3.15	H[Aib]EGS[αMeF]TSDV[αMeS]SK([PEG2′-PEG2′-γGlu-Lauroyl])LEGEAA[αMeK]K([PEG2′-PEG2′-γGlu-Lauroyl])FIAFK([PEG2′-PEG2′-γGlu-Lauroyl])VEGG-NH2 [SEQ ID NO: 482]
57.5	0.056	0.0589	20	20	20	20	6530	9.37	3.69	H[Aib]EGS[αMeF]TSDV[αMeS]SK([PEG2′-PEG2′-γGlu-Lauroyl])LEGK([PEG2′-PEG2′-γGlu-Lauroyl])AA[αMeK]EFIAFK([PEG2′-PEG2′-γGlu-Lauroyl])VEGG-NH2 [SEQ ID NO: 480]
55.4	0.0493	0.0615	19.8	19.8	19.8	19.8	8920	9.92	7.91	H[Aib]EGS[αMeF]TSDV[αMeS]SYK([PEG2′-PEG2′-γGlu-Lauroyl])EK([PEG2′-PEG2′-γGlu-Lauroyl])EAA[αMeK]EFIAK([PEG2′-PEG2′-γGlu-Lauroyl])VVEGG-NH2 [SEQ ID NO: 467]
31.3	0.026	0.0365	20	20	20	20	3660	3.84	3.48	H[Aib]EGS[αMeF]TSDV[αMeS]SYK([PEG2′-PEG2′-γGlu-Lauroyl])EGEAA[αMeK]K([PEG2′-PEG2′-γGlu-Lauroyl])FIAK([PEG2′-PEG2′-γGlu-Lauroyl])VVEGG-NH2 [SEQ ID NO: 470]
30.3	0.0254	0.0351	20.2	20.2	20.2	20.2	4020	4.46	3.57	H[Aib]EGS[αMeF]TSDV[αMeS]SK([PEG2′-PEG2′-γGlu-Lauroyl])LEGK([PEG2′-PEG2′-γGlu-Lauroyl])AA[αMeK]EFIAK([PEG2′-PEG2′-γGlu-Lauroyl])VVEGG-NH2 [SEQ ID NO: 464]
22.4	0.0172	0.0275	20.2	20.2	20.2	20.2	3200	3.86	2.55	H[Aib]EGS[αMeF]TSDV[αMeS]SK([PEG2′-PEG2′-γGlu-Lauroyl])LEGEAA[αMeK]K([PEG2′-PEG2′-γGlu-Lauroyl])FIAK([PEG2′-PEG2′-γGlu-Lauroyl])VVEGG-NH2 [SEQ ID NO: 466]
